# Source: patent US20180086849A1 (Hoffmann-La Roche, published 2018)
# B1: 1+1 CrossMab; CL/CH1 exchange (LC007/V9), anti-MCSP/anti-huCD3 (bispecific antibody, human IgG1, kappa, L234A L235A)
# chain 1: DIVLTQSPSSLSASLGDRVTISCSASQGIRNYLNWYQQRPDGTVKLLIYYTSSLHSGVPSRFSGSGSGTDYSLTISNLEPEDIATYYCQQYSKLPWTFGGGTKLEIKRTVAAPSVFIFPPSDEQLKSGTASVVCLLNNFYPREAKVQWKVDNALQSGNSQESVTEQDSKDSTYSLSSTLTLSKADYEKHKVYACEVTHQGLSSPVTKSFNRGEC
# chain 2: EVQLQESGPGLVKPSQSLSLTCSVTGYSITSGYYWNWIRQFPGNKLEWMGYITYDGSNNYNPSLKNRISITRDTSKNQFFLKLNSVTTEDTATYYCADFDYWGQGTTLTVSSASTKGPSVFPLAPSSKSTSGGTAALGCLVKDYFPEPVTVSWNSGALTSGVHTFPAVLQSSGLYSLSSVVTVPSSSLGTQTYICNVNHKPSNTKVDKKVEPKSCDKTHTCPPCPAPEAAGGPSVFLFPPKPKDTLMISRTPEVTCVVVDVSHEDPEVKFNWYVDGVEVHNAKTKPREEQYNSTYRVVSVLTVLHQDWLNGKEYKCKVSNKALGAPIEKTISKAKGQPREPQVCTLPPSRDELTKNQVSLSCAVKGFYPSDIAVEWESNGQPENNYKTTPPVLDSDGSFFLVSKLTVDKSRWQQGNVFSCSVMHEALHNHYTQKSLSLSPGK
# chain 3: DIQMTQSPSSLSASVGDRVTITCRASQDIRNYLNWYQQKPGKAPKLLIYYTSRLESGVPSRFSGSGSGTDYTLTISSLQPEDFATYYCQQGNTLPWTFGQGTKVEIKSSASTKGPSVFPLAPSSKSTSGGTAALGCLVKDYFPEPVTVSWNSGALTSGVHTFPAVLQSSGLYSLSSVVTVPSSSLGTQTYICNVNHKPSNTKVDKKVEPKSC
# chain 4: not shown
# B2: 2+1 IgG Crossfab, inverted; CL/CH1 exchange (LC007/V9), anti-MCSP/anti-huCD3 (bispecific antibody)
# chain 1: B1 chain 1
# chain 2: B1 chain 2
# chain 3: B1 chain 3
# chain 4: not shown
# B3: 2+1 IgG Crossfab; CL/CH1 exchange (M4-3 ML2/V9), anti-MCSP/anti-huCD3 (bispecific antibody)
# chain 1: B1 chain 3
# chain 2: not shown
# chain 3: QVQLQESGPGLVKPSQTLSLTCTVSGGSITSGYYWNWIRQHPGKGLEWIGYITYDGSNNYNPSLKSRVTISRDTSKNQFSLKLSSVTAADTAVYYCADFDYWGQGTLVTVSSASTKGPSVFPLAPSSKSTSGGTAALGCLVKDYFPEPVTVSWNSGALTSGVHTFPAVLQSSGLYSLSSVVTVPSSSLGTQTYICNVNHKPSNTKVDKKVEPKSCDKTHTCPPCPAPEAAGGPSVFLFPPKPKDTLMISRTPEVTCVVVDVSHEDPEVKFNWYVDGVEVHNAKTKPREEQYNSTYRVVSVLTVLHQDWLNGKEYKCKVSNKALGAPIEKTISKAKGQPREPQVCTLPPSRDELTKNQVSLSCAVKGFYPSDIAVEWESNGQPENNYKTTPPVLDSDGSFFLVSKLTVDKSRWQQGNVFSCSVMHEALHNHYTQKSLSLSPGK
# chain 4: not shown
# B4: 2+1 IgG Crossfab; CL/CH1 exchange (LC007/anti-CD3), anti-MCSP/anti-huCD3 (bispecific antibody)
# chain 1: B1 chain 1
# chain 2: B1 chain 2
# chain 3: QAVVTQESALTTSPGETVTLTCRSSTGAVTTSNYANWVQEKPDHLFTGLIGGTNKRAPGVPARFSGSLIGDKAALTITGAQTEDEAIYFCALWYSNLWVFGGGTKLTVLSSASTKGPSVFPLAPSSKSTSGGTAALGCLVKDYFPEPVTVSWNSGALTSGVHTFPAVLQSSGLYSLSSVVTVPSSSLGTQTYICNVNHKPSNTKVDKKVEPKSC
# chain 4: not shown
# B5: 2+1 IgG Crossfab; VH/VL exchange (LC007/V9), anti-MCSP/anti-huCD3 (bispecific antibody)
# chain 1: not shown
# chain 2: B1 chain 1
# chain 3: DIQMTQSPSSLSASVGDRVTITCRASQDIRNYLNWYQQKPGKAPKLLIYYTSRLESGVPSRFSGSGSGTDYTLTISSLQPEDFATYYCQQGNTLPWTFGQGTKVEIKSSASTKGPSVFPLAPSSKSTSGGTAALGCLVKDYFPEPVTVSWNSGALTSGVHTFPAVLQSSGLYSLSSVVTVPSSSLGTQTYICNVNHKPSNTKVDKKVEPKSCGGGGSGGGGSEVQLQESGPGLVKPSQSLSLTCSVTGYSITSGYYWNWIRQFPGNKLEWMGYITYDGSNNYNPSLKNRISITRDTSKNQFFLKLNSVTTEDTATYYCADFDYWGQGTTLTVSSASTKGPSVFPLAPSSKSTSGGTAALGCLVKDYFPEPVTVSWNSGALTSGVHTFPAVLQSSGLYSLSSVVTVPSSSLGTQTYICNVNHKPSNTKVDKKVEPKSCDKTHTCPPCPAPEAAGGPSVFLFPPKPKDTLMISRTPEVTCVVVDVSHEDPEVKFNWYVDGVEVHNAKTKPREEQYNSTYRVVSVLTVLHQDWLNGKEYKCKVSNKALGAPIEKTISKAKGQPREPQVCTLPPSRDELTKNQVSLSCAVKGFYPSDIAVEWESNGQPENNYKTTPPVLDSDGSFFLVSKLTVDKSRWQQGNVFSCSVMHEALHNHYTQKSLSLSPGK
# chain 4: EVQLVESGGGLVQPGGSLRLSCAASGYSFTGYTMNWVRQAPGKGLEWVALINPYKGVSTYNQKFKDRFTISVDKSKNTAYLQMNSLRAEDTAVYYCARSGYYGDSDWYFDVWGQGTLVTVSSASVAAPSVFIFPPSDEQLKSGTASVVCLLNNFYPREAKVQWKVDNALQSGNSQESVTEQDSKDSTYSLSSTLTLSKADYEKHKVYACEVTHQGLSSPVTKSFNRGEC
# B6: 2+1 IgG Crossfab, inverted; CL/CH1 exchange (LC007/anti-CD3), anti-MCSP/anti-huCD3 (bispecific antibody)
# chain 1: B1 chain 1
# chain 2: B1 chain 2
# chain 3: B4 chain 3
# chain 4: not shown
# B7: 2+1 IgG Crossfab; VL/VH exchange (M4-3 ML2/V9), anti-MCSP/anti-huCD3 (bispecific antibody)
# chain 1: B5 chain 4
# chain 2: not shown
# chain 3: not shown
# chain 4: B3 chain 3
# What was measured:
# [1] = target: T1, human MCSP (Melanoma-associated Chondroitin Sulfate Proteoglycan) on cells (human, UniProt Q6UVK1 30-2322); experiment: cell-based or functional assay
# T1 sequence (Q6UVK1 30-2322): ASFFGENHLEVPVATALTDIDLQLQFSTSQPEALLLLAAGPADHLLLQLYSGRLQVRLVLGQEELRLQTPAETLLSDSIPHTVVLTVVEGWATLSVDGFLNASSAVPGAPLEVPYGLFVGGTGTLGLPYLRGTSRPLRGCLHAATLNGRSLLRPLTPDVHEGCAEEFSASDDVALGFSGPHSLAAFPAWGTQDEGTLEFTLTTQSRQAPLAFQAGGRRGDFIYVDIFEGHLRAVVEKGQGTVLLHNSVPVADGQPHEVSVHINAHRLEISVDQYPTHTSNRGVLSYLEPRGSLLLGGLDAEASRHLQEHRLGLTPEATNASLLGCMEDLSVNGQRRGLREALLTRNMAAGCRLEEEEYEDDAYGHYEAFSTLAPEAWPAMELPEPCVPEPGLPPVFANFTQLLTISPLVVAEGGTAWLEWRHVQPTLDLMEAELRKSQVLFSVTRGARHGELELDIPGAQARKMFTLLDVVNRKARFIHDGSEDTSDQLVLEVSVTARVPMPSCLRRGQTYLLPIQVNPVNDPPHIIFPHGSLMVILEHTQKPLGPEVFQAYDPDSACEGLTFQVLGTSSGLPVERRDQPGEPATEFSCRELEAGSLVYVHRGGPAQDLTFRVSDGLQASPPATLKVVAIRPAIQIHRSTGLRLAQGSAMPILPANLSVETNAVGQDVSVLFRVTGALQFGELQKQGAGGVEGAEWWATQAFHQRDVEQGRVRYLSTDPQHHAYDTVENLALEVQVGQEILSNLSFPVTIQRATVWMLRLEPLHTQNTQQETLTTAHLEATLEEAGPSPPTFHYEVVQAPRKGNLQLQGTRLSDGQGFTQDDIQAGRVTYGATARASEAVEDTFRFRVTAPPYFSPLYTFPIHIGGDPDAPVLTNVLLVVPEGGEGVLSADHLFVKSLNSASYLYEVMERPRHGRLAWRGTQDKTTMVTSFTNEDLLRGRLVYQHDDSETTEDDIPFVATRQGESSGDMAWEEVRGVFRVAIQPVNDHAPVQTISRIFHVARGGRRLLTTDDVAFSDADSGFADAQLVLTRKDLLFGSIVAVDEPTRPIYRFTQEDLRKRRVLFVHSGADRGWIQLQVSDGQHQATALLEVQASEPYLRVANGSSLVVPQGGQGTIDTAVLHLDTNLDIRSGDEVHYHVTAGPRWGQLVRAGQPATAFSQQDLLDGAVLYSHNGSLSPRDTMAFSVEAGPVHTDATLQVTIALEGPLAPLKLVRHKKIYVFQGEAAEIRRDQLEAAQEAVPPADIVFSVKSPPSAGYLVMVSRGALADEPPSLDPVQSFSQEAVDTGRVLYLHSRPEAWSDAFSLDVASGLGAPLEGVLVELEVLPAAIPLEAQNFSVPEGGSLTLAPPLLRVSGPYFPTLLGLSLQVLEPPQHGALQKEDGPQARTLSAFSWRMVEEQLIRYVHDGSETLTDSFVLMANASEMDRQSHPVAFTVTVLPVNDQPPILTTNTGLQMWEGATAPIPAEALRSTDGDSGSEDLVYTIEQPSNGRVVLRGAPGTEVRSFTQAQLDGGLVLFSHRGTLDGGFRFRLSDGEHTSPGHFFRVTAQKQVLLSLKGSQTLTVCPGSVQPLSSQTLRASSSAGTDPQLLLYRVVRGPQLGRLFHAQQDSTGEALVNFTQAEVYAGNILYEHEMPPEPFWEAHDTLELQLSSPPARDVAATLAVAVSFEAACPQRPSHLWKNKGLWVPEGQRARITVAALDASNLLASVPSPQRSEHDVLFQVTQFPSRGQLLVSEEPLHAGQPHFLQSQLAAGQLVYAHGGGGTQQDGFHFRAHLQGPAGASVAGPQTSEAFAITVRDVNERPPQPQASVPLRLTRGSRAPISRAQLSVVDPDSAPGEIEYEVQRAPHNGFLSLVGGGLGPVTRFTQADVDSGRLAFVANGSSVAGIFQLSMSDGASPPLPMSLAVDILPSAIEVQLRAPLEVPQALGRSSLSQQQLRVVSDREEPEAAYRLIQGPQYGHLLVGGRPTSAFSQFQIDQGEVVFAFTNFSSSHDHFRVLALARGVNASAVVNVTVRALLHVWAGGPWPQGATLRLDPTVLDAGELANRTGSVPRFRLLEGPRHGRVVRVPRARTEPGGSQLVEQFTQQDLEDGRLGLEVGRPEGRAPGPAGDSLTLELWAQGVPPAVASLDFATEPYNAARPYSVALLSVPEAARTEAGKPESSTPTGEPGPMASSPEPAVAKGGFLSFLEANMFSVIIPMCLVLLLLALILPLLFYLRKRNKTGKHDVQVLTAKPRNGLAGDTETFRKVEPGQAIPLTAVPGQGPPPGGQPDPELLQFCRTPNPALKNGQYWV
# [2] = target: T1, human MCSP (Melanoma-associated …); experiment: cell-based or functional assay; remark: listed apart in the source
Binder,"EC50 of T cell-mediated killing (LDH release) of MV-3 cells, human PBMCs, 21 h [1] [nM]","EC50 of T cell-mediated killing (LDH release) of WM266-4 cells, human PBMCs, 21 h [1] [nM]","EC50 [pM] of T cell-mediated killing (LDH release) of MV-3 cells, human PBMCs, about 24 h [2] [pM]","EC50 [pM] of T cell-mediated killing (LDH release) of WM266-4 cells, human PBMCs, about 24 h [2] [pM]","EC50 of T cell-mediated killing (LDH release) of MV-3 cells, human PBMCs, 27 h [1] [nM]","EC50 of T cell-mediated killing (LDH release) of WM266-4 cells, human PBMCs, 26 h [1] [nM]"
B1,0.0884,0.0539,,,,
B2,,,4.1,3.7,,
B3,,,,,~0.0117,0.0129
B4,,,11,11.3,,
B5,0.0092,0.0331,10,12.4,,
B6,,,3,7.1,,
B7,,,,,~0.0822,0.0168
